Test results reported in patent publication US20210269501A1.

Molecular target: NKG2D ligands (NKG2DLs) on human TNBC cell lines
Test: cell-based or functional assay

| Substance | cytotoxicity (overnight luminescence based assay, MDA-MB-231 fLuc) |
| --- | --- |
| NKG2D_41BB_CD3Zeta CAR (receptor) | > 60% |
| NKG2D_CD3Zeta CAR (receptor) | > 60% |
| NKG2D_CD27_CD3Zeta CAR (receptor) | > 60% |
